Data on 44 variants can be found in the Human Domainome abundance scans (Beltran et al. 2025).

B1: Dystrobrevin alpha, residues 235 to 294; numbered along this chain, Q9Y4J8 (parent)
chain: ENVFHPVECSYCHSESMMGFRYRCQQCHNYQLCQDCFWRGHAGGSHSNQHQMKEYTSWKS

± gives the uncertainty stated by the source.

The series covers variants of B1. The series is described as follows: abundance fitness (aPCA) (normalised: wild type 0, dead -1); higher = more abundant; growth selection in yeast, the domain comes from the species named. Conditions: Homo sapiens.
Consider ENVFHPVEISYCHSESMMGFRYRCQQCHNYQLCQDCFWRGHAGGSHSNQHQMKEYTSWKS [C9I], for which the abundance fitness was -1.19 ± 0.23.
Then ENVFHPVECSYCHSHSMMGFRYRCQQCHNYQLCQDCFWRGHAGGSHSNQHQMKEYTSWKS [E15H], with 0.078 ± 0.091; and ENVFHPVECSYCHSESMMGFRYRCQQCHNYQLCQDCFWRGHAGGSHSNGHQMKEYTSWKS [Q49G], with 0.103 ± 0.038; and ENVFHPVECSYCHSESMMGFRYRCQQCHNYQLCQDCFWRGHAGGSHSNQHQMKEYCSWKS [T56C], with 0.076 ± 0.091.
The figure for ENVFHPVECSYCHSESMMGFRYRCQQCHNYQLCQDCFWRGHAGGSHSNQHQMKEYYSWKS [T56Y] is -0.509 ± 0.1.
Then ENVFHPVECSYCHSESMMGFRYRCQQCHNYQLCQDCFWRGHAGGSHSNQHQMKEYSSWKS [T56S], with 0.104 ± 0.057.
As for ENVFHPVECSYCHSESMMGFRYRCQQCHNYQLCQDYFWRGHAGGSHSNQHQMKEYTSWKS [C36Y], the abundance fitness was -0.734 ± 0.13.
The figure for ENVFHPVECSYCHSESMMGFRYRCQQCHNYQLCQDCFWRGHAHGSHSNQHQMKEYTSWKS [G43H] is -0.09 ± 0.15; for ENVFHPVECSYCHSESMMGFRYRCQQCHNYQLCQDCFWRGHAFGSHSNQHQMKEYTSWKS [G43F] it is -0.542 ± 0.12.
Then ENVFHPVECSYCHSESMMGFRYRCQQCHNYQLCQDCFWRGHWGGSHSNQHQMKEYTSWKS [A42W], with -0.29 ± 0.099.
Then ENVFHPVECSYCHSESMMGFRYRCQQCHNYQLCQDCFWRGHGGGSHSNQHQMKEYTSWKS [A42G], with -0.026 ± 0.055; and ENVFHPVECSYCHSENMMGFRYRCQQCHNYQLCQDCFWRGHAGGSHSNQHQMKEYTSWKS [S16N], with -0.011 ± 0.074.
ENVFHPVECSYCHSEIMMGFRYRCQQCHNYQLCQDCFWRGHAGGSHSNQHQMKEYTSWKS [S16I]: the abundance fitness is 0.148 ± 0.055.
The figure for TNVFHPVECSYCHSESMMGFRYRCQQCHNYQLCQDCFWRGHAGGSHSNQHQMKEYTSWKS [E1T] is -0.166 ± 0.15.
Consider ENVFHPVECSYCHSESMMGFRYRCQQCHNYQLCQDCFWRGHAGGSHSWQHQMKEYTSWKS [N48W], for which the abundance fitness is -0.532 ± 0.092.
Then ENVFHPVECSYCHSESMMGFRYRCQQCHNYQLCQDCFWRGHAGGSHSKQHQMKEYTSWKS [N48K], with -0.248 ± 0.13.
The figure for ENVFHPVECSYCHSESMMGFRYRCQQCWNYQLCQDCFWRGHAGGSHSNQHQMKEYTSWKS [H28W] is -0.16 ± 0.082; for ENVFHPVECSYCHSESMMGFRYRCQQCFNYQLCQDCFWRGHAGGSHSNQHQMKEYTSWKS [H28F] it is -0.112 ± 0.065; for ENVFHPVECSYCHSESMMGFRYRCQQCMNYQLCQDCFWRGHAGGSHSNQHQMKEYTSWKS [H28M] it is -0.008 ± 0.064.
On to ENVFHPVGCSYCHSESMMGFRYRCQQCHNYQLCQDCFWRGHAGGSHSNQHQMKEYTSWKS [E8G], for which the abundance fitness came to 0.051 ± 0.06.
The figure for ENVFHPVECSYCHSESHMGFRYRCQQCHNYQLCQDCFWRGHAGGSHSNQHQMKEYTSWKS [M17H] is 0.116 ± 0.077.
With ENVFHPVECSYCHSESMMGFRDRCQQCHNYQLCQDCFWRGHAGGSHSNQHQMKEYTSWKS [Y22D], the abundance fitness is -0.814 ± 0.15.
As for ENVFHPVECSYCHSESMMGFRYRCQQCHNYQLCQDCFWRGHAGGSHSNQHQMKEYTSWCS [K59C], the abundance fitness was -0.001 ± 0.086.
The figure for ENVFHPVECSYCHSESMMGFRYRCQQCHNYQLCVDCFWRGHAGGSHSNQHQMKEYTSWKS [Q34V] is -0.169 ± 0.13; for ENVFHPVECSYCHSESMMGFRYRCQQCHNYQLCWDCFWRGHAGGSHSNQHQMKEYTSWKS [Q34W] it is -0.606 ± 0.15.
Turning to ENVFHPVECSYCHSESMMGFRYRCQQCHNYQLCQDCFWRGHAGGSNSNQHQMKEYTSWKS [H46N], the abundance fitness is -0.316 ± 0.14.
Take ENVFHPVECSYCHSESMMGFRYRCQQRHNYQLCQDCFWRGHAGGSHSNQHQMKEYTSWKS [C27R]: the abundance fitness was -0.876 ± 0.066.
Then ENVFHPVECSYCHSESMMGFRYRCQQCHNYQLCQDCFERGHAGGSHSNQHQMKEYTSWKS [W38E], with 0.287 ± 0.07.
On to ENVFHPVECSYCHSESMMGFRYRCQQCHNYQLCQDCFTRGHAGGSHSNQHQMKEYTSWKS [W38T], for which the abundance fitness is 0.349 ± 0.077.
Then ENVFHPVECSYCHSESMMGFRYRCQQCHNYQLCQDCFFRGHAGGSHSNQHQMKEYTSWKS [W38F], with 0.099 ± 0.11; and ENVFHPVECSYCHSESMMGFRYRCQQCHNYQLCQDCFKRGHAGGSHSNQHQMKEYTSWKS [W38K], with 0.191 ± 0.13; and ENVFHPVECSYCHSESMMGFRYRCQQCHNYQLCQDCFWRGHAGGSHSNQHQLKEYTSWKS [M52L], with -0.248 ± 0.072.
The figure for ENVFHPVECSYCHSESMMGFRYRCQQCHNYQLCQDCFWRGHAGGSHSNQHQMKEYTSCKS [W58C] is 0.003 ± 0.07.
Then ENVFHPVECSYCHSESMMGFRYRCQQCHNYQLCQDCFWRGHAGGSHSNQHQMKEYTSDKS [W58D], with 0.284 ± 0.07; and ENVFHPVECSYCHSESMMGFRYRCQQCHNYQLCQDCFWRGHAGGSHSNQHQMKEYTSYKS [W58Y], with 0.142 ± 0.26; and ENVFHPVECSYCHSESMMGFRYRCQQCHCYQLCQDCFWRGHAGGSHSNQHQMKEYTSWKS [N29C], with 0.186 ± 0.082.
In the case of ENVFHPVECSYCHSESMMGFRYRCQQCHNYQLCQDCFWRSHAGGSHSNQHQMKEYTSWKS [G40S], the abundance fitness is -0.229 ± 0.065.
For the variant ENVFHPVECSVCHSESMMGFRYRCQQCHNYQLCQDCFWRGHAGGSHSNQHQMKEYTSWKS [Y11V], the abundance fitness was -0.193 ± 0.052.
The figure for ENVFHPVECSYCHSESMMGFRYRCQQCHNYQLCQDCFWSGHAGGSHSNQHQMKEYTSWKS [R39S] is 0.062 ± 0.039; for ENVFHPVECSYCHSESMMGFRYRCQQCHNYQLCQDCFWRGQAGGSHSNQHQMKEYTSWKS [H41Q] it is 0.146 ± 0.12.
The figure for ENVFHPVECSYCHSESMMGFRYRCQQCHNYQLCQDCFWRGLAGGSHSNQHQMKEYTSWKS [H41L] is -0.038 ± 0.061.
The figure for ENVFHPVECSYCHSESMMGFRYRCQQCHNYQLCQDCFWRGPAGGSHSNQHQMKEYTSWKS [H41P] is -0.192 ± 0.08; for ENVFHPVECSYCHSESMMGFRYRCQQCHNYQDCQDCFWRGHAGGSHSNQHQMKEYTSWKS [L32D] it is -0.356 ± 0.32; for ENVFHPVECSYCHSESMMGFRYRCQQCHNYQGCQDCFWRGHAGGSHSNQHQMKEYTSWKS [L32G] it is -0.511 ± 0.14.
